Patent EP2271364B1

Target: CD20 on human lymphoma cells (Daudi, Jeko-1) (human) (UniProt P11836)
Test: cell-based or functional assay

UniProt P11836, sequence (P11836 whole entry): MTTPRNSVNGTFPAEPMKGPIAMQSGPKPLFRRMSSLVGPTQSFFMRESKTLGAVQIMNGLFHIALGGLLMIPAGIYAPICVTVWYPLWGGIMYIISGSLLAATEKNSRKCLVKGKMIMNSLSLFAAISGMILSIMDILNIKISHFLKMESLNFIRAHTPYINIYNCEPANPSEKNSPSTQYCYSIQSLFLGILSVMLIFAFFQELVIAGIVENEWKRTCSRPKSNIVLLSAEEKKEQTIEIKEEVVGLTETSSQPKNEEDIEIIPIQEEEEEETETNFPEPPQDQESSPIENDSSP

| Substance | in vitro proliferation assay, Jeko-1 cells (MTS), high-concentration response [nM] | in vitro proliferation assay, Jeko-1 cells (MTS), low-concentration IFNα2b response [pM] | in vitro proliferation assay, Jeko-1 cells (MTS) [nM] |
| --- | --- | --- | --- |
| 20-2b, a DNL conjugate of CH3-AD2-IgG-hA20 (CH3-AD2-IgG-v-mab) with four IFN-α2b-DDD2 moieties (from UniProt P01563 24-188) | 0.85 | 0.97 | – |
| veltuzumab (humanized anti-CD20 MAb hA20) (antibody) | – | – | 1.5 |
